# Where no end group is shown, it is not given here.
# B1: FITC-labeled FAM83G_(111-126) (peptide)
# peptide: AEPLPSLEYWPQKSDR
# modifications: also: FITC label (position not given here)
# B2: FITC-labeled NOP53_(192-207) (peptide)
# peptide: FYDLWASDNPLDRPLV
# modifications: also: FITC label, site not given here
# B3: KIRREL3 peptide with N-terminal extension of three amino acids (634-652), unlabeled (peptide)
# peptide: TNGYYSVNTFKEHHSTPTI
# B4: KIRREL3_(637-652), unlabeled peptide (peptide)
# peptide: YYSVNTFKEHHSTPTI
# B5: FITC-labeled ZNF622_(341-356) (peptide)
# peptide: LEFADFYDFRSSYPDH
# modifications: also: FITC label, site not given here
# Tests used:
# [1] = biological target: T1, merlin FERM domain (22-312), GST tag cleaved (human, UniProt P35240 22-312); assay: fluorescence polarisation
# T1 sequence: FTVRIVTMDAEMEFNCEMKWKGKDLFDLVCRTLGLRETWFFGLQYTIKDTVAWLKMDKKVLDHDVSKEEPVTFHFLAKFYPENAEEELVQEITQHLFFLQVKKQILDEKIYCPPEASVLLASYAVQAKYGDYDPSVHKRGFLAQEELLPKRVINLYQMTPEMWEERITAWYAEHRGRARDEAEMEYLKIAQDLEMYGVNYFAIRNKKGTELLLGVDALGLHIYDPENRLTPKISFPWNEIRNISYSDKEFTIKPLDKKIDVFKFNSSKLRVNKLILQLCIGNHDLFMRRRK
# [2] = biological target: moesin FERM domain, GST tag cleaved (UniProt P26038 2-295); assay: fluorescence polarisation
# Sequence of moesin FERM domain, GST tag cleaved (P26038 2-295): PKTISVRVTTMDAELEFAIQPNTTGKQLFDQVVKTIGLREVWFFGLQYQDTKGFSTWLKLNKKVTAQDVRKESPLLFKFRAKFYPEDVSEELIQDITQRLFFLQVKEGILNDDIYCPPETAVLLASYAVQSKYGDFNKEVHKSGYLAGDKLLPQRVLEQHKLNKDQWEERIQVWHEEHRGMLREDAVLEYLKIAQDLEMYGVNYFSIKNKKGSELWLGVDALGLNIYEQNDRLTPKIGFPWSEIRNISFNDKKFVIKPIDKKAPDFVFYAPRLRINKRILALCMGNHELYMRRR
Binder,binding result [1],Kd [2],also measured
B1,,,Kd [1]: 93000 nM
B2,binds,,
B3,,120 nM,
B4,,90 nM,
B5,binds,,

# — paper doi:10.1101/2020.11.23.394106 (bioRxiv, 2020)
